Experimental data from publication PMC2581579.

Molecular target: mutant ferritin light chain p.Phe167SerfsX26 (MT-FTL) homopolymer (human) (UniProt P02792)
Assay: SEC

stoichiometry N: 24
Substance: mutant ferritin light chain p.Phe167SerfsX26 (MT-FTL) homopolymer (from UniProt P02792 1-166) (natural protein)
